Test results from the supplement of paper PMC9233669.
Fewer inactive variants are shown than the library holds.

Assays:
[1] = test system: biotinyl-Phe-oxazolone; assay: self-aminoacylation, catalytic enhancement (BFO) (fold over background); higher = more active; k-Seq, kA / k0A0; sequences stand for … in GGGAAUGGAUCCACAUCUACGAAUUC…UUCACUGCAGACUUGACGAAGCUG
Method in brief: (§1)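 The uncatalyzed rate is the low-activity peak of a bimodal Gaussian fit, and catalytic enhancement is median kA divided by it. The kA values came from pseudo-first-order fits, with 1000 bootstraps, of per-sequence fraction reacted measured by streptavidin capture, triplicate qPCR and Illumina sequencing. Mutagenized RNA pools with a 21-nt variable region (0.43 μM) were reacted with each biotinyl-aminoacyl-oxazolone at 2–1250 μM in 50 μL HEPES/NaCl/KCl/MgCl2/CaCl2 buffer with 5% acetonitrile, pH 6.9–7.0, for 90 minutes at room temperature.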

[2] = test system: biotinyl-Ile-oxazolone; assay: self-aminoacylation, catalytic enhancement (BIO) (fold over background); higher = more active; k-Seq, kA / k0A0; sequences stand for … in GGGAAUGGAUCCACAUCUACGAAUUC…UUCACUGCAGACUUGACGAAGCUG
Method in brief: as §1

[3] = test system: biotinyl-Met-oxazolone; assay: self-aminoacylation, catalytic enhancement (BMO) (fold over background); higher = more active; k-Seq, kA / k0A0; sequences stand for … in GGGAAUGGAUCCACAUCUACGAAUUC…UUCACUGCAGACUUGACGAAGCUG
Method in brief: as §1

[4] = test system: biotinyl-Val-oxazolone; assay: self-aminoacylation, catalytic enhancement (BVO) (fold over background); higher = more active; k-Seq, kA / k0A0; sequences stand for … in GGGAAUGGAUCCACAUCUACGAAUUC…UUCACUGCAGACUUGACGAAGCUG
Method in brief: as §1

[5] = test system: biotinyl-Leu-oxazolone; assay: self-aminoacylation, catalytic enhancement (BLO) (fold over background); higher = more active; k-Seq, kA / k0A0; sequences stand for … in GGGAAUGGAUCCACAUCUACGAAUUC…UUCACUGCAGACUUGACGAAGCUG
Method in brief: as §1

[6] = test system: biotinyl-Trp-oxazolone; assay: self-aminoacylation, catalytic enhancement (BWO) (fold over background); higher = more active; k-Seq, kA / k0A0; sequences stand for … in GGGAAUGGAUCCACAUCUACGAAUUC…UUCACUGCAGACUUGACGAAGCUG
Method in brief: as §1

| Sequence | self-aminoacylation [1] | self-aminoacylation [2] | self-aminoacylation [3] | self-aminoacylation [4] | self-aminoacylation [5] | self-aminoacylation [6] |
| --- | --- | --- | --- | --- | --- | --- |
| AAGUUUGCUAAUUGUCGCUAG [Fam3.1 aminoacylation ribozyme variant] | 0.848 | 0.95 | 1 | 1.02 | 1.17 | 1.08 |
| AAGUUUGCUAAUUGUUGCAAG [Fam3.1 aminoacylation ribozyme variant] | 1.11 | 0.929 | 0.901 | 0.775 | 0.945 | 0.926 |
| AAGUUUGCUACUAGUCGCAAG [Fam3.1 aminoacylation ribozyme variant] | 1.13 | 0.824 | 0.802 | 0.838 | 0.766 | 0.775 |
| AAGUUUGCUACUAGUCGGAAG [Fam3.1 aminoacylation ribozyme variant] | 0.777 | 0.835 | 0.712 | 0.749 | 0.518 | 0.866 |
| AAGUUUGCUACUAGUCGUAAG [Fam3.1 aminoacylation ribozyme variant] | 0.833 | 0.772 | 0.848 | 0.783 | 0.759 | 0.867 |
| AAGUUUGCUACUUGUCGCAAG [Fam3.1 aminoacylation ribozyme variant] | 1.01 | 1.05 | 0.928 | 1.12 | 1.06 | 1.21 |
| AAGUUUGCUAGUAGUAGCAAG [Fam3.1 aminoacylation ribozyme variant] | 1.62 | 1.24 | 0.808 | 1.18 | 1 | 1.2 |
| AAGUUUGCUAGUAGUCCCAAG [Fam3.1 aminoacylation ribozyme variant] | 1.65 | 1.01 | 0.75 | 1.14 | 0.873 | 1.68 |
| AAGUUUGCUAGUAGUCGCAAG [Fam3.1 aminoacylation ribozyme variant] | 1.13 | 0.746 | 0.745 | 0.773 | 0.706 | 0.851 |
| AAGUUUGCUAUUACUCGCAAG [Fam3.1 aminoacylation ribozyme variant] | 1.09 | 0.728 | 0.734 | 0.868 | 0.82 | 0.738 |
| AAGUUUGCUAUUAGGCGCAAG [Fam3.1 aminoacylation ribozyme variant] | 0.81 | 0.746 | 0.591 | 0.681 | 0.546 | 0.841 |
| AAGUUUGCUAUUAGUCGCAAG [Fam3.1 aminoacylation ribozyme variant] | 1.08 | 0.848 | 0.814 | 0.823 | 0.76 | 0.826 |
| AAGUUUGCUAUUAGUCGCCAG [Fam3.1 aminoacylation ribozyme variant] | 0.947 | 1.01 | 0.864 | 0.818 | 1.12 | 0.849 |
| AAGUUUGCUAUUAGUCUCAAG [Fam3.1 aminoacylation ribozyme variant] | 1.66 | 0.998 | 0.976 | 1.07 | 0.928 | 0.975 |
| AAGUUUGCUCAUACUCGCAAG [Fam3.1 aminoacylation ribozyme variant] | 0.813 | 0.777 | 0.742 | 0.752 | 0.715 | 0.748 |
| AAGUUUGCUCAUAGUAGCAAG [Fam3.1 aminoacylation ribozyme variant] | 1.58 | 0.928 | 0.727 | 1.09 | 0.817 | 0.786 |
| AAGUUUGCUCAUAGUUGCAAG [Fam3.1 aminoacylation ribozyme variant] | 1.04 | 0.916 | 0.916 | 0.772 | 0.896 | 0.888 |
| AAGUUUGCUGAUAGCCGCAAG [Fam3.1 aminoacylation ribozyme variant] | 1.49 | 0.846 | 0.91 | 0.968 | 0.736 | 0.586 |
| AAGUUUGCUGAUAGUAGCAAG [Fam3.1 aminoacylation ribozyme variant] | 1.41 | 0.892 | 1.07 | 1.24 | 0.88 | 1.05 |
| AAGUUUGCUGAUAGUCACAAG [Fam3.1 aminoacylation ribozyme variant] | 1.23 | 1.15 | 1.2 | 1.28 | 1.08 | 1.62 |
| AAGUUUGCUGAUAGUCCCAAG [Fam3.1 aminoacylation ribozyme variant] | 0.972 | 1.17 | 0.626 | 0.847 | 0.786 | 1.08 |
| AAGUUUGCUGAUAGUCGCCAG [Fam3.1 aminoacylation ribozyme variant] | 4.26 | 1.38 | 1.41 | 1.53 | 2.22 | 1.44 |
| AAGUUUGCUGAUAGUCGUAAG [Fam3.1 aminoacylation ribozyme variant] | 0.944 | 0.854 | 0.951 | 0.93 | 0.674 | 0.823 |
| AAGUUUGCUGAUUGUCGCAAG [Fam3.1 aminoacylation ribozyme variant] | 1.02 | 0.948 | 1.09 | 1.02 | 1.11 | 1.37 |
| AAGUUUGCUUAAAGUCGCAAG [Fam3.1 aminoacylation ribozyme variant] | 1.07 | 0.972 | 0.754 | 0.897 | 0.896 | 1.1 |
| AAGUUUGCUUAGAGUCGCAAG [Fam3.1 aminoacylation ribozyme variant] | 0.969 | 0.725 | 0.757 | 0.785 | 0.592 | 1 |

| Sequence | self-aminoacylation [1] | self-aminoacylation [2] | self-aminoacylation [3] | self-aminoacylation [4] | self-aminoacylation [5] | self-aminoacylation [6] |
| --- | --- | --- | --- | --- | --- | --- |
| AAGUUUGCUUAUAGUCGCCAG [Fam3.1 aminoacylation ribozyme variant] | 0.665 | 1.08 | 0.883 | 0.955 | 0.933 | 1.08 |
| AAGUUUGCUUAUAGUCGCUAG [Fam3.1 aminoacylation ribozyme variant] | 1 | 0.884 | 0.705 | 0.646 | 0.628 | 0.61 |
| AAGUUUGCUUAUAGUCUCAAG [Fam3.1 aminoacylation ribozyme variant] | 1.41 | 1.05 | 1.08 | 0.888 | 0.902 | 0.69 |
| AAGUUUGGCAAUAGUCGCAAG [Fam3.1 aminoacylation ribozyme variant] | 1.92 | 1.79 | 1.49 | 1.42 | 1.4 | 1.49 |
| AAGUUUGGUAAUAGUCGCAAG [Fam3.1 aminoacylation ribozyme variant] | 2.13 | 1.32 | 1.22 | 1.19 | 1.25 | 1.38 |
| AAGUUUGGUAAUAGUCGCACG [Fam3.1 aminoacylation ribozyme variant] | 1.98 | 1.18 | 1.07 | 1.11 | 1.45 | 1.09 |
| AAGUUUGGUAAUAGUCGUAAG [Fam3.1 aminoacylation ribozyme variant] | 1.44 | 1.04 | 0.961 | 0.916 | 0.801 | 1.11 |
| AAGUUUGUUAAUAGGCGCAAG [Fam3.1 aminoacylation ribozyme variant] | 1.05 | 0.767 | 0.799 | 0.652 | 0.556 | 0.763 |
| AAGUUUGUUAAUAGUCGUAAG [Fam3.1 aminoacylation ribozyme variant] | 1.38 | 0.929 | 0.893 | 0.808 | 0.902 | 0.911 |
| AAGUUUGUUGAUAGUCGCAAG [Fam3.1 aminoacylation ribozyme variant] | 1.36 | 1.14 | 1.09 | 1.09 | 1.09 | 1.19 |
| AAGUUUGUUUAUAGUCGCAAG [Fam3.1 aminoacylation ribozyme variant] | 1.47 | 1.3 | 1.34 | 1.24 | 1.26 | 1.52 |
| AAGUUUUCUAAGAGUCGCAAG [Fam3.1 aminoacylation ribozyme variant] | 3.16 | 1.65 | 1.32 | 1.62 | 1.62 | 1.51 |
| AAGUUUUCUAAUAGUCGCAAA [Fam3.1 aminoacylation ribozyme variant] | 3.41 | 1.93 | 1.54 | 1.54 | 1.41 | 2.46 |
| AAUACCCGGGUCAUCGAGUGA [Fam2.1 aminoacylation ribozyme variant] | 34.7 | 3.72 | 5.22 | 3.64 | 6.7 | 7.23 |
| AAUACCCUGGGCAUCGAGUGA [Fam2.1 aminoacylation ribozyme variant] | 8.76 | 1.8 | 3.75 | 2.29 | 3.79 | 3.44 |
| AAUACCCUGGUCAUAGAGUGA [Fam2.1 aminoacylation ribozyme variant] | 10.7 | 2.68 | 4.64 | 2.3 | 4.68 | 5.58 |
| AAUACCCUGGUCAUCGAAUGA [Fam2.1 aminoacylation ribozyme variant] | 0.529 | 0.855 | 0.76 | 0.781 | 0.724 | 1.17 |
| AAUCACCUAGCUCAUCGGGUG [Fam2.2 aminoacylation ribozyme variant] | 17.7 | 2.33 | 2.82 | 3.17 | 2.31 | 3.68 |
| AAUCACCUAGGACAUCGGGUG [Fam2.2 aminoacylation ribozyme variant] | 19.1 | 3.91 | 4.09 | 3.32 | 3.27 | 5.94 |
| AAUCACCUAGGUCAUCGGGGG [Fam2.2 aminoacylation ribozyme variant] | 10.6 | 2.91 | 3.21 | 2.77 | 3.66 | 3.96 |
| AAUCACCUAGGUCAUCGGGUA [Fam2.2 aminoacylation ribozyme variant] | 52.7 | 7.76 | 12 | 7.24 | 14.7 | 10.5 |
| AAUCACCUAGGUGAUCGGGUG [Fam2.2 aminoacylation ribozyme variant] | 27.7 | 4.6 | 5.43 | 4.03 | 4.84 | 5.05 |
| AAUCACCUCGGUCAUCGGGUG [Fam2.2 aminoacylation ribozyme variant] | 31.2 | 4.07 | 4.76 | 5.23 | 4.99 | 7.61 |
| AAUCAUCUAGGUCAUCGGGUG [Fam2.2 aminoacylation ribozyme variant] | 41.3 | 4.54 | 5.64 | 4.6 | 5.48 | 7.01 |
| AAUCUCCUAGGUCAUCGGGUG [Fam2.2 aminoacylation ribozyme variant] | 35.1 | 4.3 | 6.93 | 4.51 | 6.83 | 5.91 |
